# Laboratory results taken from patent US20250171549A1.
# Several values for one entry are separate records, joined by “and”; a condition that tells them apart may be missing. Identical values can stand only once.
# How the values were obtained:
# human CCR8 (human) [1] = biological target: human CCR8 (human) (UniProt P51685); assay: flow cytometry, primary human Tregs (PBMC, CD4+CD25+CD127- gate)
# [2] = biological target: cynomolgus monkey CCR8 (comprising threonine at position four) (cynomolgus monkey); assay: flow cytometry, primary cynomolgus Tregs (PBMC, CD4+CD25+CD127- gate)
# [3] = biological target: P_1-35 construct (full-length N-terminal peptide of human CCR8 fused to V5 tag, chicken albumin, FLAG tag, BAP and H3G) (human); assay: flow cytometry, construct on streptavidin beads
# [4] = biological target: T1, P_25-35 construct (truncated N-terminal peptide of human CCR8 fused to V5 tag, chicken albumin, FLAG tag, BAP and H3G) (human); assay: flow cytometry, construct on streptavidin beads
# T1 sequence (chain, biotinylated in vivo at BAP): CDAELIQTNGK
# [5] = biological target: P_13-24 construct (truncated N-terminal peptide of human CCR8 fused to V5 tag, chicken albumin, FLAG tag, BAP and H3G) (human); assay: flow cytometry, construct on streptavidin beads
# [6] = biological target: P_19-30 construct (truncated N-terminal peptide of human CCR8 fused to V5 tag, chicken albumin, FLAG tag, BAP and H3G) (human); assay: flow cytometry, construct on streptavidin beads
# [7] = biological target: P_1-12 construct (truncated N-terminal peptide of human CCR8 fused to V5 tag, chicken albumin, FLAG tag, BAP and H3G) (human); assay: flow cytometry, construct on streptavidin beads
# [8] = biological target: P_7-18 construct (truncated N-terminal peptide of human CCR8 fused to V5 tag, chicken albumin, FLAG tag, BAP and H3G) (human); assay: flow cytometry, construct on streptavidin beads
# rat CCR8 (rat) = assay: flow cytometry, HEK293T transfectants, 5 ug/mL
# murine CCR8 (murine) = murine CCR8 (murine) (UniProt P56484); assay: flow cytometry, HEK293T transfectants, 5 ug/mL
# [9] = biological target: cynomolgus monkey CCR8 (comprising threonine at position four) (cynomolgus monkey); assay: flow cytometry, primary cynomolgus Tregs, purified antibody 20 ug/ml
# human CCR8 (human) [10] = biological target: human CCR8 (human) (UniProt P51685); assay: flow cytometry, HuT78 cells, 5 ug/mL
# [11] = biological target: human CCR8 with an A27G point mutation (human) (UniProt P51685); assay: flow cytometry, HEK293T transfectants, 5 ug/mL
# Sequence of human CCR8 with an A27G point mutation (human) (P51685 whole entry A27G): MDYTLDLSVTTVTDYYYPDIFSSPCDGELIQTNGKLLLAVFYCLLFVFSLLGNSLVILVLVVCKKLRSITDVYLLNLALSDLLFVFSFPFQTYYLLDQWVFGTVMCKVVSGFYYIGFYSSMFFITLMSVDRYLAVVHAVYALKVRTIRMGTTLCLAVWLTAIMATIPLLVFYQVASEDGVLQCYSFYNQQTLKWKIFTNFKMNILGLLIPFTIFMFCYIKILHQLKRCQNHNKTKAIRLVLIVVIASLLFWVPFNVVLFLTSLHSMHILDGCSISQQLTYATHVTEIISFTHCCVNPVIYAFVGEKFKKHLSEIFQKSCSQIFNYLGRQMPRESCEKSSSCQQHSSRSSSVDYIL
# Sequence of human CCR8 (human) (P51685 whole entry): as the sequence (P51685 whole entry A27G) above, with G27A counted along it
# Sequence of P_1-35 construct (full-length N-terminal peptide of human CCR8 fused to V5 tag, chicken albumin, FLAG tag, BAP and H3G) (human) (chain, as listed by the source): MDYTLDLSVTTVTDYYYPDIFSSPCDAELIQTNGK
# Sequence of anti-human CCR8 antibody clone 433H (BD 747578) (VH): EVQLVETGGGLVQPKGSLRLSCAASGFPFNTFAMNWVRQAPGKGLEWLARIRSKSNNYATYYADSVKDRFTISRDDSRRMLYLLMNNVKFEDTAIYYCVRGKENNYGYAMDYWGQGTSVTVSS
# Sequence of anti-human CCR8 antibody clone 433H (BD 747578) (VL): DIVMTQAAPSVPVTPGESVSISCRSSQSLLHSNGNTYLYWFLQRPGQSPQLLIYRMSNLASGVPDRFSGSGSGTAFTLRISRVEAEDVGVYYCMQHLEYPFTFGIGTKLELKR
# Sequence of cynomolgus monkey CCR8 (comprising threonine at position four) (cynomolgus monkey) (O97665 other isoform, or with tags, fused parts or gaps): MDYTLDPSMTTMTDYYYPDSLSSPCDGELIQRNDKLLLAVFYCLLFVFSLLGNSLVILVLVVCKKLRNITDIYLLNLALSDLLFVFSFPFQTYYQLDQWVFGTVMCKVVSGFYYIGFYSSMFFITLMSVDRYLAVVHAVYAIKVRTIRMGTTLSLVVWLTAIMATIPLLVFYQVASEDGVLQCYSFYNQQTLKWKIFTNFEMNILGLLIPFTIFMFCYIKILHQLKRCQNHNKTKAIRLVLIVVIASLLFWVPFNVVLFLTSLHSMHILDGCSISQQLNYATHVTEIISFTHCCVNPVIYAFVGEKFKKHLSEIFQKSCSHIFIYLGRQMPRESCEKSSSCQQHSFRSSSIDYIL
# Sequence of rat CCR8 (rat) (P56484 other isoform, or with tags, fused parts or gaps): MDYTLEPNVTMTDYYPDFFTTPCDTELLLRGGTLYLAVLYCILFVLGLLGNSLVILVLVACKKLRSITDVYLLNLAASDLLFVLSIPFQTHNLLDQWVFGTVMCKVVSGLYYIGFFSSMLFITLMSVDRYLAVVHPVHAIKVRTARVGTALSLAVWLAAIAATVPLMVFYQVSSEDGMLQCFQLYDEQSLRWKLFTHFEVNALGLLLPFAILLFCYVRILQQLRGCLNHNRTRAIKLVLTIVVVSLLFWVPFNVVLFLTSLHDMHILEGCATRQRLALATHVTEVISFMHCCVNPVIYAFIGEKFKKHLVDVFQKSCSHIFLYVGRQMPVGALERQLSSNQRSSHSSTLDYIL
# Sequence of murine CCR8 (murine) (P56484 whole entry): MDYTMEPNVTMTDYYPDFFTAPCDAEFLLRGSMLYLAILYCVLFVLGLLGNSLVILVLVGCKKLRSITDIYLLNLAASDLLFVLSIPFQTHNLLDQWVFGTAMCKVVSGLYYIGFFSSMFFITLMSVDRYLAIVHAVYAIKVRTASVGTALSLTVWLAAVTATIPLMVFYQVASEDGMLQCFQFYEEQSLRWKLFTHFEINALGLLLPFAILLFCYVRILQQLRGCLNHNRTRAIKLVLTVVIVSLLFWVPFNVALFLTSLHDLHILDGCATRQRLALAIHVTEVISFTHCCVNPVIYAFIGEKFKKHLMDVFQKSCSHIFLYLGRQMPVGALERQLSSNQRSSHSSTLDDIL
substance,measurement,setting,value
Cyno IgG2a (antibody),"CCR8+CD127-CD25+CD4, % positive",human CCR8 (human) [1],0% and 0.1%
same,"CCR8+CD127-CD25+CD4, % positive",[2],0.3% and 0.8%
Hu IgG2b (antibody),"CCR8+CD127-CD25+CD4, % positive",human CCR8 (human) [1],1.5% and 0% and 1.9%
same,"CCR8+CD127-CD25+CD4, % positive",[2],11.9% and 11.3%
Negative control (Table 6),Median Fluorescence of Sample/Median Fluorescence of Negative Control,[3],1
same,Median Fluorescence of Sample/Median Fluorescence of Negative Control,[4],1.1
same,Median Fluorescence of Sample/Median Fluorescence of Negative Control,[5],1
same,Median Fluorescence of Sample/Median Fluorescence of Negative Control,[6],1
same,Median Fluorescence of Sample/Median Fluorescence of Negative Control,[7],1
same,Median Fluorescence of Sample/Median Fluorescence of Negative Control,[8],1
SA214G2 (antibody),binding by FACS (read-out not named),rat CCR8 (rat),1590
same,binding by FACS (read-out not named),murine CCR8 (murine),56800
"anti-FLAG antibody (clone M2, Sigma F3165/F1804)",Median Fluorescence of Sample/Median Fluorescence of Negative Control,[3],522
same,Median Fluorescence of Sample/Median Fluorescence of Negative Control,[4],582
same,Median Fluorescence of Sample/Median Fluorescence of Negative Control,[5],628
same,Median Fluorescence of Sample/Median Fluorescence of Negative Control,[6],590
same,Median Fluorescence of Sample/Median Fluorescence of Negative Control,[7],596
same,Median Fluorescence of Sample/Median Fluorescence of Negative Control,[8],589
"anti-V5 antibody (clone SV5-Pk1; AbD Serotec, MCA 1360)",Median Fluorescence of Sample/Median Fluorescence of Negative Control,[3],953
same,Median Fluorescence of Sample/Median Fluorescence of Negative Control,[4],1090
same,Median Fluorescence of Sample/Median Fluorescence of Negative Control,[5],1300
same,Median Fluorescence of Sample/Median Fluorescence of Negative Control,[6],1020
same,Median Fluorescence of Sample/Median Fluorescence of Negative Control,[7],1090
same,Median Fluorescence of Sample/Median Fluorescence of Negative Control,[8],1090
anti-human CCR8 antibody clone 433H (BD 747578),Median Fluorescence of Sample/Median Fluorescence of Negative Control,[3],290
same,Median Fluorescence of Sample/Median Fluorescence of Negative Control,[4],0.9
same,Median Fluorescence of Sample/Median Fluorescence of Negative Control,[5],300
same,Median Fluorescence of Sample/Median Fluorescence of Negative Control,[6],0.9
same,Median Fluorescence of Sample/Median Fluorescence of Negative Control,[7],0.9
same,Median Fluorescence of Sample/Median Fluorescence of Negative Control,[8],0.9
same,"CCR8+CD127-CD25+CD4, % positive",[9],66.2% and 63.7%
"anti-human CCR8 antibody clone L263G8 (BioLegend, 360602)",Median Fluorescence of Sample/Median Fluorescence of Negative Control,[3],751
same,Median Fluorescence of Sample/Median Fluorescence of Negative Control,[4],0.9
same,Median Fluorescence of Sample/Median Fluorescence of Negative Control,[5],285
same,Median Fluorescence of Sample/Median Fluorescence of Negative Control,[6],0.9
same,Median Fluorescence of Sample/Median Fluorescence of Negative Control,[7],0.9
same,Median Fluorescence of Sample/Median Fluorescence of Negative Control,[8],0.9
same,binding by FACS (read-out not named),human CCR8 (human) [10],4500
same,binding by FACS (read-out not named),[11],41400
